Experimental data as given in US11376333B2, “mTG substrates for covalent conjugation of compounds” (COVALAB, priority 2013, dated 2022).
Where no end group is shown, it is not given here.

What was measured:
Type in all cases: biochemical
[1] = target: T1, microbial transglutaminase (mTG) (Streptomyces mobaraensis, UniProt P81453); test: Colorimetric assay: mTG incorporation of biotinylated peptides into immobilized spermine, apparent Km; details: spermine plate; for Kmapp: biotin tagged peptides at 160-0 μM, Lineweaver-Burk, nr = peptide not recognized by the enzyme; for reactivity of peptide with mTG (text on Table 3): biotinylated peptides
T1 construct: purchased Covalab, France opr 0054
T1 sequence (P81453 77-407): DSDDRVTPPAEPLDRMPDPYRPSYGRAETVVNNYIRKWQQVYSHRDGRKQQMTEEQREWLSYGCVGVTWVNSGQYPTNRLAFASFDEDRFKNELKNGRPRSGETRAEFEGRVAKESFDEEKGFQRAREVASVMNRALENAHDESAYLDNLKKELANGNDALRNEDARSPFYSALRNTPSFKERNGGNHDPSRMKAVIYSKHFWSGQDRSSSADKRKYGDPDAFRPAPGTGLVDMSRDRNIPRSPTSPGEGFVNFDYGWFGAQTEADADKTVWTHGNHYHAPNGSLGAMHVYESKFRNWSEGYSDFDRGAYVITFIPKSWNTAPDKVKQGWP
Text: To produce the Covabtest-spm plate, the procedure previously described in Mily et al (2009) was used.
For the screening of the peptide listed in table 2 (Biotinylated peptides) the inventors used our colorimetric assay to measure transglutaminase 2 (TG2) cross linking activity (Mily et al, 2009) and commercialized under ref opr0033 in which mTG was used instead of TG2 and described in this experience. The principle of the method is based on the transamidation activity of mTG, using covalently coupled spermine to carboxy-substituted polystyrene plates and biotinylated peptides. The assay consists of the incorporation of the glutamine gamma-carboxamide group into the immobilized spermine. The amount of biotinylated peptide bound to the plate, as measured by the activity of streptavidin-peroxidase, is directly proportional to the TG activity. Absorbance was measured at 450 nm using the microplate reader.
In order to compare the affinity of mTG to the preferred substrate, the peptides were used at different concentrations ranging from 160, 80, 40, 20, 10, 5, 2.5 and 0 μM. Then the apparent Km were determined for each peptide and were calculated by Lineweaver-Burk method (1/Absorbance=f(1/[mTG (μM)]).
In this experiment, spermine was conjugated into the plate as described in B-II-4. Biotinylated peptides described in table 3 were incubated with mTG at different concentration (160, 80, 40, 20, 10, 5, 2.5 and 0 μM). […] Even if E seems to abolish the reactivity of the peptides this cannot be due to the negative charge only but also to the nature of the amino acides at the position X+1, X+2 and X+3. […] This is confirmed with LN-11Q8Q10 peptide.

[2] = target: T1, microbial transglutaminase (mTG); test: mTG incorporation of biot-cad into coated BSA-peptide conjugate, with free-peptide competition; details: 1 μg/ml coated, mTG 100 ng/ml, biotin-cad 0.1 mg/ml
Experimental: 2 mg of each peptide was dissolved in 1 ml of deionized water and 150 nmoles were mixed with 0.5 mg BSA solubilized in 50 mM bicarbonate buffer pH9.5. After shaking, glutaraldehyde was added at a final concentration of 0.25% (v/v). The mixtures were kept at room temperature during 16 hrs under gentle shaking. At the end of this incubation time, sodium borohydride was added at a final concentration of 10 mg/ml to stabilize the cross-linking between BSA and the peptides. After 2 hours each mixture of peptide-BSA was dialyzed separately in PBS to remove any free peptides.
High binding 96 wells-microtiter plates (Costar) were used to immobilize BSA-peptide and to human IgG-peptide conjugates prepared as described in M-4 and M-5. For these experiments, conjugates were prepared at 50 μg/ml in 50 mM sodium carbonate buffer pH 9 and 100 μl of each solution was dispensed in the number of wells needed for the experiment. After overnight incubation at 4° C., the plates were washed extensively with Tris Buffer Saline (TBS) and were ready to be used for TG activity.
The same procedure was used as described in B-II-1
In the literature its well known that many proteins are not substrate of transglutaminase even if many glutamine residues are present in their structures (Gorman J J, Folk J E. J Biol Chem. 1984 Jul. 25; 259(14):9007-10). […]

[3] = target: T1, microbial transglutaminase (mTG); test: mTG reaction on preferred substrates and Q-to-N mutated analogues; details: mutated analogue peptides
Text: In order to confirm the specificity of mTG reaction on the highly reactive peptide HH12Q11 and its small derivatives DH6N5, the inventors synthesized the mutated analogue peptides in which the Gln donors (Q) were replaced by asparagine (N).

[4] = target: T1, microbial transglutaminase (mTG); test: mTG-mediated incorporation of biotin-X-cadaverine into peptides coupled on Covabtest plate; details: 15 nmoles peptide coupled to plate, biot-cad 0.1 mg/ml, mTG 10 ng/well
Experimental: The coupling method was previously described by the Applicant (V. Thomas et al, 2004) and also in the corresponding data sheet of CovAbtest-Plate™ which is commercially available from Covalab (Ref #opr0004). Briefly, in separate tubes a solution mixture containing 150 μM of each peptide dissolved in 10 mM phosphate buffer pH5, 5 mM EDAC and 5 mM NHS was incubated for 30 min under gentle shaking. The resulting activated NHS-carboxyl C-terminal moiety of each peptide (15 nmoles) was used to be conjugated in each well of CovAbtest-Plate™ previously deprotonated during 15 min with 150 μl 0.6% sodium bicarbonate per well. The microtiter plate was then incubated during 2 hrs at room temperature and washed extensively with Tris Buffer Saline.
For this experiment we used the same procedures described by V Thomas et all (2004) and also in the Covalab's commercialized kit (opr0033). Briefly the Lyophilized transglutaminase was reconstituted in 40 mM tris buffer pH 8 and 50 μl of each mTG at 200 ng/ml and at 40 ng/ml were added in the wells containing 50 μl of biotin-X-cadaverine. The enzymatic mixture was incubated for 15 min at room temperature under gentle shaking. Then the plates were washed 3 times with TBS-Tween20 followed by the addition of 100 μl of diluted HRP labeled streptavidine ( 1/2000 in TBS Tween20, 0.5% BSA) in each well. After 30 min at room temperature and 3 washings in TBS-Tween20, 100 μL of TMB substrate were added and after 5 min the colour development was stopped using 100 μl of 0.5 M sulfuric acid. Absorbances at 450 nm were measured using a microplate reader (Multiskan, Labsystems, Helsinki, Finland).
To screen the peptide library (Covalab) and identify the putative new substrates of mTG we used Covabtest-peptide (described in B-I-1) in which the peptides were covalently coupled into the plates and the amine substrate Biotin-cadeverine (biot-cad) was free in solution. In this experiment 15 nmoles of each peptide (table 2) were covalently conjugated to microtiter plate and the incorporation of biot-cad (0.1 mg/ml) catalyzed by mTG (10 ng/well) was determined following the experiment described in B-II-1. Among all the peptides tested only few peptides were recognized by mTG as Gln (Q) donor to incorporate biot-cad as shown in the FIG. 1. The enzymatic activity was different between the peptide substrates. […] When Q is replaced by N (peptide HH12N11) no reactivity of the mTG was observed confirming the specificity of the enzyme to Gln donor. Moreover, if the reactivity of the 4 peptides (HH12Q11, DH6Q7, HG14Q11 and WG10Q7) is compared, it can be observed that the reactivity of the Gln depends on its position in the peptide sequence. In the most reactive peptides Q is located at the C-terminal. […]

| Substance | Kmapp [1] | reactivity of peptide with mTG (text on Table 3) [1] | further results |
| --- | --- | --- | --- |
| WPDVYSQH (also: biotin) [bWH8Q7] | 11.40 µM |  |  |
| KEEFQPL (also: biotin, place not given here) [bKL7Q5] | nr |  |  |
| WPDVYSQH (Peptide WH8Q7) |  | highly reactive with mTG |  |
| DVYSQE (also: biotin, place not given here) [bDE6Q5] | nr | reactivity seems to be lost |  |
| YEIQR [BEST1] | 0.086 µM | excellent substrates |  |
| WPLMMQD (also: biotin) [bWD7Q7] | nr |  |  |
| YEAQR [BEST3] | 0.08 µM | excellent substrates |  |
| SPLKHQEY (also: biotin, place not given here) [bSY8Q6] | >50.00 µM |  |  |
| WPAQR [BEST4] | 0.225 µM | excellent substrates |  |
| CHQSYV (also: biotin, place not given here) [bCV6Q3] | nr |  |  |
| free BSA: non modified bovine serum albumin, control [reference compound] |  |  | incorporation of biot-cad by mTG into coated protein [2]: no reactivity |
| HDLMWPDVYSNH (also: biotin, place not given here) [bHH12N11] | nr |  |  |
| VWRSQYF (also: biotin, place not given here) [bVF7Q5] | nr |  |  |
| DVYSNH (Peptide DH6N5) |  |  | mTG reactivity after replacement of Q by N [3]: abolish totally the enzyme reactivity |
| LLTLPSVQEQN (also: biotin, place not given here) [bLN11Q8-10] | 172.00 µM |  |  |
| HNKSQAL (also: biotin tag, position not given here) [bHL8Q6] | nr |  |  |
| HDLMWPDVYSNH [HH12N11] |  |  | reactivity as Gln donor for mTG incorporation of biot-cad [4]: no reactivity; mTG reactivity after replacement of Q by N [3]: abolish totally the enzyme reactivity |
| DVYSQH (Peptide DH6Q5) |  | highly reactive with mTG |  |
| PSVQES (not fully specified; also: biotin tag, site not given here) [bPS6Q3] | nr |  |  |
| HSQALP [bHP6Q3(A)] | nr |  |  |
| FWIQE (also: biotin, place not given here) [bFE5Q4] | 5.00 µM |  |  |
| YEAQK [BEST2] | 0.114 µM | excellent substrates |  |
| YEVQK [BEST5] | 0.126 µM | excellent substrates |  |
| DVYSNH (also: biotin, place not given here) [bDH6N5] | nr |  |  |
| LLTLPSVSEQN (also: biotin, place not given here) [bLN11Q10] | nr | inhibit completely the reactivity |  |
| GGSPLAQSHGGS (Peptide GS12Q7) [reference compound] |  |  | reactivity as Gln donor for mTG incorporation of biot-cad [4]: low reactivity |
| PLVQSH (also: biotin, place not given here) [bPH6Q4] | 14.77 µM |  |  |
| DVYSQH (also: biotin, place not given here) [bDH6Q5] | 33.10 µM |  |  |
| FWIQE (Peptide FE5Q4) |  | high reactivity with mTG | reactivity as Gln donor for mTG incorporation of biot-cad [4]: good substrate for mTG |
| HDLMWPDVYSQH (also: biotin, place not given here) [bHH12Q11] | 3.08 µM |  |  |
